Source: FireProtDB (doi:10.1021/bi9928694)

B1: Lysozyme C, P61626 (parent)
chain: MKALIVLGLVLLSVTVQGKVFERCELARTLKRLGMDGYRGISLANWMCLAKWESGYNTRATNYNAGDRSTDYGIFQINSRYWCNDGKTPGAVNACHLSCSALLQDNIADAVACAKRVVRDPQGIRAWVAWRNRCQNRDVRQYVQGCGV

Variants of: B1
Details: Homo sapiens, reversible: yes, structure 1LZ1, whole UniProt chain shown
[1] = pH 2.7, 64.9 °C, Thermal, DSC, glycine-HCl 0.05 M
[2] = pH 2.7, Thermal, DSC, glycine-HCl 0.05 M
[3] = pH 4, 10 °C, GdnHCl, CD, glycine-HCl 40 mM

Variant | ddG of mutation (higher = less stable) [1] [kJ/mol] | heat capacity change of unfolding [1] [kcal/mol/K] | unfolding enthalpy (calorimetric) [1] [kJ/mol] | Tm [2] [°C] | heat capacity change of unfolding [2] [kcal/mol/K] | unfolding enthalpy (calorimetric) [2] [kJ/mol] | ddG of mutation (higher = less stable) [3] [kJ/mol] | denaturant midpoint (higher = more stable) [3] [M] | unfolding free energy [3] [kJ/mol] | change of melting temperature, mutant - wild type (higher = more stable) [2] [°C]
G55Q | 1.09 | 1.15 | 450 | 64.9 | 1.15 | 450 | 3.6 | 3.79 | 56.4 | –
Q76G | – | – | – | – | 1.34 | 455 | -8.62 | 4.26 | 68.6 | 5.7
R68G | -1.09 | 1.46 | 420 | 65.8 | – | – | – | – | – | 0.9
H96G | 0.502 | 1.58 | 455 | 64.9 | 1.58 | 455 | 2.22 | 3.81 | 57.8 | –
